Columns and labels:
[1] = molecular target: BRPF2 bromodomain, wild-type, N-terminal His6-tagged (UniProt O95696); assay: ITC
[2] = molecular target: BRPF2 bromodomain, wild-type, N-terminal His6-tagged (UniProt O95696); assay: pull-down
[3] = molecular target: BRPF2 bromodomain F648A mutant (UniProt O95696); assay: pull-down
Sequence of BRPF2 bromodomain F648A mutant (O95696 556-688 F648A): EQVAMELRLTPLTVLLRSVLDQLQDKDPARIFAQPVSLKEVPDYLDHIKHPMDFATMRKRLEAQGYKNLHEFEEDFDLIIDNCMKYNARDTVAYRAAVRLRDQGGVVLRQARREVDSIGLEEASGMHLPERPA

Sequence of BRPF2 bromodomain, wild-type, N-terminal His6-tagged (O95696 556-688): as the sequence (O95696 556-688 F648A) above, with A93F counted along it

Kd [1] [µM]	fold reduction of binding with BAY-299 against without inhibitor [2] [fold]	fold reduction of binding against the wild type [3] [fold]	Substance
12.2			histone H4Kac4 (H4K5/8/12/16) (1-20) peptide (from UniProt P62805 2-21)
	3	1.5	endogenous hyperacetylated histone H4 bearing the K5ac mark (from UniProt P62805 1-103) (natural protein)
55.2			histone H2AK5ac (1-12) peptide (from UniProt P0C0S8 2-13)

From article doi:10.1101/2022.02.20.481182
